Test results as given in US8835609B2, “Antigen binding sites to non-functional oligomeric P2X7 receptors and methods of use thereof” (Biosceptre International Limited, priority 2009, dated 2014).

Legend:
Colo205 cells = assay: ApoOne apoptosis assay, caspase 3/7 activity; assay type: cell-based, human; conditions: for Caspase 3/7 activation: COLO205, 3 day time course, antibodies up to 40 ug/mL
Method: FIG. 11. Mechanism of Cell Death Induced by 2F6 with Caspase 3/7 Activation Associated with Reactivation of Apoptosis. […] In contrast, the absence of drug or antibody has no effect (cells only column).
A mode of action by which the 2F6 is able to inhibit cell growth was determined by an ApoOne apoptosis assay in which caspase 3/7 activity was measured in combination with cell growth through the Cell Titer Blue assay. Colo205 cells were grown in a 3-day growth assay with increasing 2F6 from 0-40 ug/mL. The gemcitabine positive control was added to establish the degree of apoptosis that may be elicited by the presence of bound antibody.

Lewis Lung (LL) tumour = assay: Lewis Lung (LL) syngeneic xenograft model, lung metastases; assay type: in vivo, mouse; conditions: 5 mL/kg daily; Day 11
Method: Dosing occurred every 3 days at antibody concentrations of 1 or 10 mg/kg i.v. or with PBS for treatment control or Sorafenib at 5 mL/kg daily as a positive control in the Lewis Lung model. Mice were randomised into equal groups of 10 mice, based on tumour volume on Day 0 of the studies.
Mice were anaesthetised for blood collection and euthanised by exsanguination via terminal cardiac bleed 48 hours post-final dose, on Days 11 or 14 post-initial treatment.
The lungs were excised from all mice. Lung surface metastases were counted and were categorised according to size: small (<1 mm), medium (≧1 mm and <3 mm) and large (≧3 mm). Excised lungs were preserved in 10% neutral buffered formalin.
The syngeneic Lewis Lung model was used with additional control groups. Besides the PBS control group of ten mice (Group 1), a positive control group using daily Sorafenib at 5 mL/kg was included (Group 5) along with antibody treatment groups consisting of sheep affinity purified E200-300 polyclonal antibody at 10 mg/kg (Group 2), 2F6-hIgG1 at 1 mg/kg (Group 3) and 2F6-hIgG1 at 10 mg/kg (Group 4).

[1] = molecular target: T1, E200-300 epitope of P2X7 receptor (Homo sapiens, UniProt Q99572, INS205RNILPGGA); assay: ELISA against immobilised antigen E200-300; assay type: binding
T1 construct: added C-terminal Cys (attachment point for BSA, DT, ovalbumin or KLH via MCS); purchased Chiron Mimotopes; host or cells: solid phase peptide synthesis
T1 sequence (Q99572 with tags, fused parts or gaps isoform Q99572-5 INS205RNILPGGA): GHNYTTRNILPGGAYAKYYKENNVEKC
Method: FIG. 18. ELISA of IgM, IgG2a and Fab Leads. Lead Affinity Matured 2F6-Derived Fab ELISA (scale 0.01-12.5 ug/mL for IgM and IgG2a; 0.1-100 ug/mL for Fabs).
The 2F6 VH and VL gene fragments were amplified and assembled into an E. coli expression/secretion vector. Both the 2F6 scFv and Fab were transformed into E. coli and expression of the gene construct induced. The E. coli cultures were harvested 5 hours post induction and the scFv and Fab analysed for binding using ELISA and Biacore against immobilised antigen E200-300.
Mutagenesis of the 2F6 scFv was introduced through a combination of error prone PCR, NNK randomisation and sequence length variation of HCDR3. A mutated library in the phagemid vector was of order 1×10^7. Screening of the library for higher affinity mutants employed a combination of phage display with filter expression assays using biotinylated E200-300 antigen. A selection of higher affinity scFv lead phage clones underwent small scale expression of soluble antibody fragments with affinities measured using ELISA and Biacore.

[2] = molecular target: T2, non-functional receptors on live COLO-205 cells (Homo sapiens, UniProt Q99572); assay: Flow cytometry binding to live COLO205 cells; assay type: cell-based; conditions: FLAG-tagged Fabs; anti-FLAG secondary
T2 construct: endogenous in cells; host or cells: COLO-205 (human colorectal tumour cells)
T2 sequence (Q99572 1-595): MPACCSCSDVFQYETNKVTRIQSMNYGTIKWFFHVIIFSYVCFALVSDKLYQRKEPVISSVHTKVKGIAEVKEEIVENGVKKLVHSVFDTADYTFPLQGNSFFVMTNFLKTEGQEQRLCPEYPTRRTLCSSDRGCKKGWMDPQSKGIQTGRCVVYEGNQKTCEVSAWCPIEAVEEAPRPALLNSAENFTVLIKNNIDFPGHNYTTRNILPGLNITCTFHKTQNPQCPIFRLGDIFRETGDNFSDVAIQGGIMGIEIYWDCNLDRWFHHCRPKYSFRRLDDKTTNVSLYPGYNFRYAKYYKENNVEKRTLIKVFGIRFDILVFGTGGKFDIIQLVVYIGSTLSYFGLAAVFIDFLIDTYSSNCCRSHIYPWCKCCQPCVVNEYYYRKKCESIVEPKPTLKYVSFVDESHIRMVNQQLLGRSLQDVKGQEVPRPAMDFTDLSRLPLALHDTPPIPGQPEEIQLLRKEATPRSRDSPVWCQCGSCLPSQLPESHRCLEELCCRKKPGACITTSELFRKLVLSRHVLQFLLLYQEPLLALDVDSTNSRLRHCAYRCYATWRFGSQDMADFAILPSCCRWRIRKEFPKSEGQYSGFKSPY
From the text: (§1) FIGS. 19(a)-(b). (a) Flow cytometry results for binding recombinant Fabs to live colorectal COLO205 tumour cells. A Sigma anti-FLAG secondary antibody (#F4049) was used to detect the binding of the primary antibodies. WT 2F6 Fab bound weakly over the same concentration range. The EC50 for the four lead Fabs is very similar to the values obtained from ELISA measurements. (b) Very similar improved binding results were obtained for prostate PC3 cells.
(§2) Flow cytometry was used to measure the enhanced binding of selected affinity matured recombinant Fabs in human COLO-205 and PC3 cell lines over that of the starting 2F6 sequence. Recombinant FLAG-tagged Fabs were bound to cells and detected using a Sigma F4049 murine monoclonal anti-FLAG antibody conjugated to FITC used at a concentration of 1:75. Affinity purified sheep 200-300 antibody was examined for direct comparison with the 2F6 mIgG2a WT by Flow to PC3 cells.

[3] = tested on: prostate PC3, colon COLO205, breast MDAMB231, melanoma A375 and breast MCF7; assay: Cell Titer Blue assay of cell growth, range of cancer cell lines; assay type: cell-based; conditions: for cell growth: 3-day or 5-day growth, antibody 0-40 ug/mL
Method: (§3) FIGS. 9(a)-(d). (a) In Vitro Cell Inhibition Assays. […] Growth over 5 days is inhibited to a greater extent than over 3 days. The growth data is plotted relative to the control growth curves obtained using the control IgM antibody.
(§4) Cells were seeded at appropriate density and grown over a 3-day or 5-day period to reach a level close to confluence at the end of the test period in the presence of control antibodies and in the presence of test antibodies, either IgM or IgG2a types of 2F6 over the concentration range 0-40 ug/mL. Testing of cell line growth was conducted with seed densities ranging from 100-2000 cells/well.

[4] = molecular target: T3, non-functional receptors on live PC3 cells (Homo sapiens, UniProt Q99572); assay: Flow cytometry binding to PC3 cells; assay type: cell-based
T3 construct: endogenous in cells; host or cells: PC3 (human prostate tumour cells)
T3 sequence (Q99572 1-595): T2 sequence (Q99572 1-595)
From the text: as §1
FIG. 20. A comparison was made with various preparations of recombinant 2F6 IgG2a to determine the relative binding strength of the WT formatted antibody to PC3 cells compared with the affinity matured Fabs. Rockland IgG2a #010-001-332 was used for control to determine background (diamond).
as §2

COLO205 = assay: Cell Titer Blue cell growth assay, COLO205; assay type: cell-based, human
Method: as §3, §4

MCF-7 cells = assay: Direct cell killing, confocal microscope images; assay type: cell-based; conditions: 20 ug/mL; 24 hours exposure
Method: FIG. 12. Direct Cell Killing by 2F6 IgM. Confocal microscope images of MCF-7 cells in presence of control IgM antibody (a) and 2F6 IgM (b) for 24 h.

[5] = tested on: MCF-7 breast cancer cell line; assay: Cell Titer Blue cell growth inhibition with peptide blocking, MCF-7; assay type: cell-based; conditions: for growth inhibition after pre-incubation of antibody with soluble peptide epitope: 3 days
Method: FIG. 10. Blocking Reaction in Cell Killing Assay. The Cell Titer Blue cell growth inhibition assay is used over three day cell growth with MCF-7 breast cancer cell line. Note the viable control cells in the right column have no antibody or peptide. The left hand column is the signal derived from the cells incubated with 10 ug/mL 2F6 IgM antibody containing 500 ug/mL peptide epitope (E200-300 epitope described as 200/300 in Figure), sufficient to block the cell growth inhibition evidenced by the data in the three central columns that show growth inhibition is not affected by the presence of 50 ug/mL, 5 ug/mL or 0 ug/mL peptide respectively.
as §4

Molecule: Nc1ccn([C@@H]2O[C@H](CO)[C@@H](O)C2(F)F)c(=O)n1 [Gemcitibine, gemcitabine, reference compound]
- Caspase 3/7 activation (Colo205 cells): activate caspases

Molecule: CNC(=O)c1cc(Oc2ccc(NC(=O)Nc3ccc(Cl)c(C(F)(F)F)c3)cc2)ccn1 [Sorafenib, reference compound]
- Mean Lung Surface Mets (Lewis Lung (LL) tumour): 0.1
- inhibition of lung metastases relative to PBS control (Lewis Lung (LL) tumour): 96%

B1: WT Fab: recombinant Fab of wildtype 2F6 expressed in E. coli (antibody, V domains shown)
VH: DVKLVESGGGLVKLGGSLKLSCAASGFTFSSYYMSWVRQTPEKRLELVAAINSNGGSTYYPDTVKGRFTISRDNAKNTLYLQMSSLKSEDTAFYYCTRHYSSRFFDVWGAGTTVTVSS
VL: MADIVMTQSQKFMSTSVGDRVSVTCKASQNVGTNVAWYQQKPGQSPKALIYSASFRYSGVPDRFTGSGSGTDFTLTISNVQSEDLAEFFCQQYNSYPFTFGSGTRLEIK
- binding compared with selected affinity matured leads ([1]; ELISA, Fab format): much lower (2-logs) binding
- EC50 (ELISA) ([1]; scale 0.01-12.5 ug/mL for IgM and IgG2a, 0.1-100 ug/mL for Fabs): very low EC50
- binding to live COLO205 cells [2]: bound weakly

B2: 2F6 IgG2a: 2F6 VH and VL chains spliced into a mouse IgG2a sequence, expressed in HEK293 cells (antibody, V domains shown)
VH: B1 VH
VL: B1 VL
- cell growth [3]: inhibited cell growth
- cell growth inhibition compared with the IgM form ([3]; over 3 days): weaker cell inhibition
- binding to PC3 cells [4]: comparable to the binding elicited by the lead Fabs

B3: 2F6 IgM: hybridoma clone 2F6, mouse IgM with Kappa light chains, raised to P2X7 E200-300; CDR3 HYSSRFFDV (antibody, V domains shown)
VH: B1 VH
VL: B1 VL
modifications: IgM constant regions
notes: hybridoma clone 2F6, mouse IgM with Kappa light chains, raised to P2X7 E200-300; CDR3 …
- COLO205 growth (COLO205; over 3 days, relative to control IgM): significantly inhibited
- COLO205 cells (COLO205; over 5 days, even at low dose of 2.5 ug/mL): eliminated
- Caspase 3/7 activation (Colo205 cells): steady increase
- antibody concentration sufficient to initiate full caspase 3/7 (apoptosis) activity (Colo205 cells; Colo205, 3-day growth assay): 20 to 40 µg/mL
- cell growth [3]: inhibited cell growth
- cell death (confocal images) (MCF-7 cells): many cells are already dead
- growth inhibition after pre-incubation of antibody with soluble peptide epitope ([5]; 10 ug/mL antibody, E200-300 peptide 500 ug/mL): no longer able to affect cell growth
- growth inhibition after pre-incubation of antibody with soluble peptide epitope ([5]; 10 ug/mL antibody, E200-300 peptide 5-50 ug/mL): no effect on the inhibition
- MCF7 cell growth ([5]; 10 ug/mL antibody, over 3 days): greatly inhibits cell growth
- MCF-7 cell growth ([5]; after 5 days of exposure): Total inhibition of cell growth
